Key:
[1] = target: T1, synthetic peptide from the APP beta-secretase site with the Swedish mutation SEVNL/DAEFR
T1 chain: SEVNLDAEFR

[2] = target: T2, synthetic peptide PS1-gamma LVNMAEGD
T2 chain: LVNMAEGD

[3] = target: Native proteins
[4] = target: recombinant pro-memapsin 2 (pro-M2pd)
[5] = target: T3, synthetic peptide from the APP beta-secretase site SEVKM/DAEFR
T3 chain: SEVKMDAEFR

[6] = target: T4, peptide from the processing site of presenilin 1 SVNM/AEGD
T4 chain: SVNMAEGD

[7] = target: T5, synthetic peptide NCH-gamma VGSGVLLSRK
T5 chain: VGSGVLLSRK

[8] = target: oxidized bovine insulin B chain, P01317
Chain of oxidized bovine insulin B chain, P01317 (P01317 25-54): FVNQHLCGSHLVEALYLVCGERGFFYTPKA

Chain of recombinant pro-memapsin 2 (pro-M2pd) (chain, as listed by the source): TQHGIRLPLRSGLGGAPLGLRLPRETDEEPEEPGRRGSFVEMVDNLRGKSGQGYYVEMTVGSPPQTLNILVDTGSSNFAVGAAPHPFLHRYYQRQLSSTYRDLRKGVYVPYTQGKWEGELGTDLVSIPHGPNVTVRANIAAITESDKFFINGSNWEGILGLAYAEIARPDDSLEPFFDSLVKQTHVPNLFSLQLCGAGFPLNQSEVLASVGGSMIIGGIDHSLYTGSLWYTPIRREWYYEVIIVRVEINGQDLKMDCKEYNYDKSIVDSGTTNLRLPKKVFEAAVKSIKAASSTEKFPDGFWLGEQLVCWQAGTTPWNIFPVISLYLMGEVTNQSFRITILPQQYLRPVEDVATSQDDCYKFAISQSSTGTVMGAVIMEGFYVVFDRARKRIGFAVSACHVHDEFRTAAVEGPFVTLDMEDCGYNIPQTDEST

B1: recombinant memapsin 2 (M2pd), auto-activated from pro-M2pd at pH 4.0 (protein)
chain: GIRLPLRSGLGGAPLGLRLPRETDEEPEEPGRRGSFVEMVDNLRGKSGQGYYVEMTVGSPPQTLNILVDTGSSNFAVGAAPHPFLHRYYQRQLSSTYRDLRKGVYVPYTQGKWEGELGTDLVSIPHGPNVTVRANIAAITESDKFFINGSNWEGILGLAYAEIARPDDSLEPFFDSLVKQTHVPNLFSLQLCGAGFPLNQSEVLASVGGSMIIGGIDHSLYTGSLWYTPIRREWYYEVIIVRVEINGQDLKMDCKEYNYDKSIVDSGTTNLRLPKKVFEAAVKSIKAASSTEKFPDGFWLGEQLVCWQAGTTPWNIFPVISLYLMGEVTNQSFRITILPQQYLRPVEDVATSQDDCYKFAISQSSTGTVMGAVIMEGFYVVFDRARKRIGFAVSA
Q: For B1, which Km [1] is on record?
A: Km, 1 mM

Q: What about the “fold increase of kcat/Km over native APP” value [1] of the same protein?
A: 60-fold increase of kcat/Km over that for native APP

Q: And the kcat [1]?
A: tcat, 2.45 s^-1

Q: And the kcat/Km [1]?
A: kcat/Km, 2450 s^-1M^-1

Q: And the “hydrolytic sites (HPLC and mass spectrometry)” value (“hydrolytic sites” below) [2]?
A: A single cleavage site was observed in synthetic peptide PS1-gamma

Q: And the hydrolysis [3]?
A: Native proteins were not cleaved by M2pd

Q: And the self-cleavage sites [4]?
A: M^2pd cleaved its pro peptide (2 sites) and the protease portion (2 sites) during a 16 h incubation after activation

Q: What about the kcat/Km [5] of the same protein?
A: kcat/Km, 39.9 s^-1M^-1

Q: And the Km [6]?
A: Km, 15.2 mM

Q: What about the kcat [6] of the same protein?
A: kcat, 0.67 s^-1

Q: What about the kcat/Km [6] of the same protein?
A: kcat/Km, 43.8 s^-1M^-1

Q: And the “hydrolytic sites” value [7]?
A: Three hydrolytic sites were identified from peptide NCH-gamma

Q: And the “hydrolytic sites” value [8]?
A: Two hydrolytic sites were identified on oxidized insulin B-chain
